36 sequences from the supplement of paper PMC10567573 can be followed below.

± gives the standard deviation.

This series in a line: protein stability index of a GFP-peptide fusion (GPS, HEK-293T) (PSI 1-6); higher = more stable. As to conditions: c terminus: a fixed tail appended.
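Further: 24-mer peptide tiles fused after GFP, lentivirally expressed, FACS-sorted into six equal bins by GFP/DsRed ratio, decoded by Illumina sequencing, PSI is the read-weighted mean bin number.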

DPESERALQAPHSPSKTDGKELAG [PBXIP1]: the protein stability index reads like this: (treatment: DMSO) 5.48 ± 0.28; (treatment: MLN4924 1 uM, 8 h) 5.75 ± 0.25.
The like results for DQDGDQAPEYRGRTELLKDAIGEG [MOG] were, in that order, 5.33 ± 0.34 and 5.43 ± 0.21.
The like results for DREQVSSYNITVTATDGGSPPLST [PCDHGA10] were, in that order, 4.54 ± 0.24 and 4.74 ± 0.14.
The like results for DRGTRVVFIDFSVYNANINLFCVL [PKD2L1] were, in that order, 3.11 ± 0.08 and 2.95 ± 0.31.
With DRSRTVSASSTGDLPKAKTRAADL [SRPK2], the protein stability index runs as follows: (treatment: DMSO) 4.94 ± 0.11; (treatment: MLN4924 1 uM, 8 h) 4.68 ± 0.24.
Taken in the same sequence, the figures for DSDSEKQQQIHHIKNLYAFNLFCQ [VPS39] were 2.58 ± 0.29 and 2.71 ± 0.35.
For the sequence DSHILLCLMGLAETPGCATLLPAS [DCAF4], the protein stability index is, setting by setting: (treatment: DMSO) 2.67 ± 0.45; (treatment: MLN4924 1 uM, 8 h) 2.58 ± 0.55.
Taken in the same sequence, the figures for DTEVITVEKSSPATSLFVELDEEE [BCL2L13] were 5.39 ± 0.065 and 5.54 ± 0.25.
Sequence DTFAAYTREQLYQAIFHAVDQYLA [MCOLN1] came in with a protein stability index (treatment: DMSO) of 2.66 ± 0.44 and a protein stability index (treatment: MLN4924 1 uM, 8 h) of 2.42 ± 0.44.
The like results for DTGLFSRSKSGSEEVLCDSCIGNK [TRIM29] were, in that order, 4.61 ± 0.1 and 4.92 ± 0.23.
The like results for DTWTLTEEHGLQQERPRPEPGRLG [PXN] were, in that order, 4.93 ± 0.34 and 4.92 ± 0.19.
The like results for DVKRLGKQNARFLTSMRRLSSIKR [STX11] were, in that order, 2.9 ± 0.35 and 2.98 ± 0.42.
As for DYVMTTLLFSDKNVNSNLITWNRV [TRIP13], the protein stability index is, setting by setting: (treatment: DMSO) 2.4 ± 0.75; (treatment: MLN4924 1 uM, 8 h) 2.36 ± 0.62.
The like results for EADPEMIKRAEDYGPVEVISHWHP [CLPTM1] were, in that order, 4.42 ± 0.24 and 4.26 ± 0.38.
Taken in the same sequence, the figures for EAEKDGVKVPTTLAEYCIKTKVPS [UBE2R2] were 5.08 ± 0.19 and 5.15 ± 0.2.
EAMAEKNRRDVEAWFFSKTEELNK [KRT15] came in with a protein stability index (treatment: DMSO) of 4.15 ± 0.23 and a protein stability index (treatment: MLN4924 1 uM, 8 h) of 4.21 ± 0.25.
The like results for ECVWNGSDSVIMTGSYNNFFRMFD [PPP2R2B] were, in that order, 2.23 ± 0.34 and 2.27 ± 0.39.
Sequence EDDGLQSAFTAAHELGHVFNMLHD [ADAMTS4] showed a protein stability index (treatment: DMSO) of 3.77 ± 0.28 and a protein stability index (treatment: MLN4924 1 uM, 8 h) of 3.9 ± 0.4.
The like results for EDDVSFLMKHKSRKRRLFCTMEPE [TRIM35] were, in that order, 3.61 ± 0.28 and 3.74 ± 0.19.
Taken in the same sequence, the figures for EDFIFSHFFGDKALKKRSGKKDKH [PBXIP1] were 3.82 ± 0.079 and 4.13 ± 0.16.
Consider EDVDTSQVLYEWEQGFSQSFTQEQ [CTNNB1], for which the protein stability index by setting is: (treatment: DMSO) 5.03 ± 0.23; (treatment: MLN4924 1 uM, 8 h) 5.07 ± 0.21.
Taken in the same sequence, the figures for EEAISVVMSGKMSVSKAQSIYGIP [LCOR] were 2.69 ± 0.17 and 2.53 ± 0.087.
Take EEDNVEESEEEGPWEPPVLPILTW [HDAC6]: the protein stability index was 4.33 ± 0.29 (treatment: DMSO) and 4.62 ± 0.3 (treatment: MLN4924 1 uM, 8 h).
Taken in the same sequence, the figures for EEERRRREEEERERLQKEEEKRRR [ACBD3] were 5.59 ± 0.45 and 5.69 ± 0.12.
The like results for EEGLEARGEALGLVGAQAPATEEQ [MAGEA3] were, in that order, 5.57 ± 0.27 and 5.39 ± 0.34.
The like results for EEKKAKVAPPAKQAQQKKAPAKKA [BRD3] were, in that order, 5.45 ± 0.29 and 5.49 ± 0.17.
As for EEKQRELARKGSLKNGSMGSPVNQ [FAM219A], the protein stability index came to 5.33 ± 0.097 (treatment: DMSO) and 5.35 ± 0.16 (treatment: MLN4924 1 uM, 8 h).
EELSVLEVFEGREDSIFGDPKKLL [MAGEA6]: the protein stability index reads like this: (treatment: DMSO) 4.22 ± 0.35; (treatment: MLN4924 1 uM, 8 h) 4.32 ± 0.28.
The like results for EELTREAVAVDVAVPKRLLEIVGR [HAGHL] were, in that order, 3.85 ± 0.17 and 3.91 ± 0.38.
Taken in the same sequence, the figures for EEWLDILGNGLLRKKTLVPGPPGS [FKBP8] were 2.62 ± 0.12 and 2.78 ± 0.5.
The like results for EEYCHKHYDRNKDGNKDVYLSLLR [VPS39] were, in that order, 3.23 ± 0.35 and 3.19 ± 0.27.
Take EFCRNTLCAPEVISLINTRMLFWA [FAF2]: the protein stability index was 2.74 ± 0.45 (treatment: DMSO) and 2.73 ± 0.32 (treatment: MLN4924 1 uM, 8 h).
The like results for EFHPHHCNTFVYSSSKGTIRLCDM [PPP2R2B] were, in that order, 2.31 ± 0.29 and 2.15 ± 0.18.
Consider EFNELLSKYQLSEAQLSLIRDIRR [NFE2L1], for which the protein stability index reads like this: (treatment: DMSO) 2.57 ± 0.22; (treatment: MLN4924 1 uM, 8 h) 2.82 ± 0.38.
Taken in the same sequence, the figures for EGCGPPLRRWLRANLAASGGYAIA [TSPAN10] were 1.94 ± 0.21 and 2.52 ± 0.3.
The like results for EHFGIVPLEAMYMQCPVIAVNSGG [ALG2] were, in that order, 2.33 ± 0.11 and 2.59 ± 0.37.
